Among the data in the supplement of paper PMC10567573 are protein stability index values, retold here.

± gives the standard deviation.

This data set in a line: protein stability index of a GFP-peptide fusion (GPS, HEK-293T) (PSI 1-6); higher = more stable.
The mark [1] stands for this setting: treatment: DMSO, c terminus: a fixed tail appended.
The mark [2] stands for this setting: treatment: MLN4924 1 uM, 8 h, c terminus: a fixed tail appended.
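Further: 24-mer peptide tiles fused after GFP, lentivirally expressed, FACS-sorted into six equal bins by GFP/DsRed ratio, decoded by Illumina sequencing, PSI is the read-weighted mean bin number.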

With ITTVSKAKGASLFTCDLQHTETGE [VPS39], the protein stability index runs as follows: under setting [1], 4.06 ± 0.25; under setting [2], 3.99 ± 0.21.

As to TVKHIDAALSEENTGKTYFFVANK [MMP1], the protein stability index by setting is: under setting [1], 3.28 ± 0.32; under setting [2], 3.38 ± 0.18. In the case of DFLETPELTSTMLVPASWWILNN [NECAB1], the protein stability index (treatment: DMSO, c terminus: native) amounted to 2.21 ± 0.35 and the protein stability index (treatment: MLN4924 1 uM, 8 h, c terminus: native) was 2.18 ± 0.25. On to VEKSSPATSLFVELDEEEVKAATT [BCL2L13], for which the protein stability index reads like this: under setting [1], 5.53 ± 0.22; under setting [2], 5.46 ± 0.2. Regarding VFCPLDPPPPYEAVVSQMDQEQGS [FAM189A2], the protein stability index was 4.65 ± 0.13 under setting [1] and 4.76 ± 0.2 under setting [2]. Regarding TEWACILRRKTPRHKQPTLLMVRA [C6orf223], the protein stability index under setting [1] was 2.19 ± 0.57 and the protein stability index under setting [2] was 2.17 ± 0.097.

For SLSRNNSFRRNVGRVLLANSTQAD [FBXO34], the protein stability index is, setting by setting: under setting [1], 3.15 ± 0.24; under setting [2], 3.21 ± 0.3. Regarding RVEEQAILDAMAEETRQKQLLADE [TRIM35], the protein stability index is, setting by setting: under setting [1], 5.57 ± 0.26; under setting [2], 5.38 ± 0.15. With DLVDSLKLAVFMWLMTYVGAVFNG [RTN3], the protein stability index worked out at 3.02 ± 0.59 under setting [1] and 3.2 ± 0.051 under setting [2].

Regarding ENIQDITVNIHRLHVKRSMGWKKA [ZMYND11], the protein stability index under setting [1] worked out at 2.98 ± 0.26 and the protein stability index under setting [2] is 3.22 ± 0.49. For PDEEPMHYGNIMYDRRVIRGNTYA [RSPH3], the protein stability index was found to be 3.5 ± 0.27 under setting [1] and 3.41 ± 0.33 under setting [2]. Taken in the same sequence, the figures for TRPTQHELRLYKQQVKKLEKALKK [CEP70] were 3.23 ± 0.25 and 3.07 ± 0.29. In the case of TSIGDGPLSSDIQVITQTGVPGQP [PTPRD], the protein stability index runs as follows: under setting [1], 4.6 ± 0.22; under setting [2], 4.76 ± 0.19.

With ENRELYIKTTLRELLVYIVFLVDI [PKD2L1], the protein stability index stood at 2.58 ± 0.87 under setting [1] and 2.57 ± 0.82 under setting [2]. Taken in the same sequence, the figures for MAGTNALLMLENFIDGKFLPCSSY [ALDH8A1] were 2.19 ± 0.35 and 2.12 ± 0.26.

For LCVILYKKVHKGTVPKNDADDESE [GLT8D2], the protein stability index runs as follows: under setting [1], 2.02 ± 0.15; under setting [2], 2.31 ± 0.1. Turning to TLHPDASANFHSLDDIYYFGGQNA [FUT8], the protein stability index is 3.21 ± 0.12 under setting [1] and 3.27 ± 0.16 under setting [2]. For LELTVRRVQGVLRGRAREREQLQA [HES6], the protein stability index is, setting by setting: under setting [1], 3.7 ± 0.45; under setting [2], 3.64 ± 0.43. In the case of EKNNHRAKDLRAPPEQGKIFIARR [SOAT1], the protein stability index under setting [1] came to 3.16 ± 0.33 and the protein stability index under setting [2] amounted to 3.27 ± 0.5. In the case of QVETSIEGTIPFSKPVKVYIMPKP [INTS4], the protein stability index turned out to be 2.65 ± 0.33 under setting [1] and 2.65 ± 0.42 under setting [2].

Regarding WVCLAYFTSGFNAAALDYEADGST [SPACA3], the protein stability index is, setting by setting: under setting [1], 2.9 ± 0.46; under setting [2], 2.91 ± 0.25. Regarding VATGSQQSLAQPLPGNTTEATPRS, the protein stability index turned out to be 5.42 ± 0.44 under setting [1] and 5.28 ± 0.43 under setting [2].

In the case of HASSYISPEKEEQYIAQFTSQFLS [PRAME], the protein stability index came to 3.06 ± 0.44 under setting [1] and 3.31 ± 0.27 under setting [2]. Taken in the same sequence, the figures for EIRRKEKEAVLAMEKKSKPKNSVW [RIT1] were 4.12 ± 0.17 and 4.29 ± 0.38. VSGDYYPIIYFNDYWNLQKDYYPI [CLPTM1] gave a protein stability index under setting [1] of 3.03 ± 0.64 and a protein stability index under setting [2] of 3.1 ± 0.87. As to SPRDEYKPLDLSDSTLSYTETEAT [SMAD6], the protein stability index worked out at 5.45 ± 0.24 under setting [1] and 5.41 ± 0.23 under setting [2]. Taken in the same sequence, the figures for KERLKPAHIHLQQLTCFSITCSST [KRT34] were 2.1 ± 0.34 and 2.49 ± 0.22.

Regarding ALQYAGDGSVLLIPRTMADQQARR [NFE2L1], the protein stability index reads like this: under setting [1], 3.11 ± 0.14; under setting [2], 3.19 ± 0.63. For ENYETVISLALFVLPKPKVISCLE [ZNF75A], the protein stability index is, setting by setting: under setting [1], 3.11 ± 0.47; under setting [2], 3.46 ± 0.28.

Take RISHTLYDLDKIIELNGGQPPLTY [CRY1]: the protein stability index by setting is: under setting [1], 2.38 ± 0.041; under setting [2], 2.6 ± 0.27. Taken in the same sequence, the figures for LGGFSHWGRLTSYSGGGYYLDLPG [PKD2L1] were 2.47 ± 0.19 and 2.74 ± 0.25. Turning to RFTTSKLQSFEDLASISTYGFRGE [MLH1], the protein stability index by setting is: under setting [1], 3.24 ± 0.47; under setting [2], 3.12 ± 0.36.

Regarding TQYFAELLMTSGVVLCEGVKWLSF [CNOT7], the protein stability index reads like this: under setting [1], 3.25 ± 0.2; under setting [2], 3.56 ± 0.19. Taken in the same sequence, the figures for HSMKPHPAITATLLDFMCRIIPNF [INTS3] were 2.96 ± 0.45 and 3 ± 0.88. Taken in the same sequence, the figures for KRRRKETSECPSDKDKSPESHKAK [C10orf62] were 5.34 ± 0.27 and 5.42 ± 0.21. Regarding SQPIDLSACTVALHIFQLNEDGPS [TRIP13], the protein stability index under setting [1] was 2.56 ± 0.2 and the protein stability index under setting [2] was determined as 2.51 ± 0.28. For the sequence FGHLSVFSTSKWNHLLHHFVIGHL [FADS1], the protein stability index is 2.58 ± 0.41 under setting [1] and 2.76 ± 0.78 under setting [2]. Taken in the same sequence, the figures for TRTGPSAWETKKILAVSFAPLIQP [PCMTD2] were 2.14 ± 0.29 and 2.31 ± 0.31.

Regarding VELLLSHADCDRRSRIEALELLGA [FEM1B], the protein stability index amounted to 2.7 ± 0.19 under setting [1] and 2.78 ± 0.21 under setting [2]. In the case of PGSTSPLETSGNPNGRYGSGYLLA [SLC6A17], the protein stability index is, setting by setting: under setting [1], 3.44 ± 0.19; under setting [2], 3.72 ± 0.33. With LLAAQVQLQCSPAELQAELLHSQA [FBF1], the protein stability index by setting is: under setting [1], 2.56 ± 0.26; under setting [2], 2.42 ± 0.45.

With RHEVIMDRHGVYGLQRNLLVENII [TRIM63], the protein stability index was 2.42 ± 0.13 under setting [1] and 2.31 ± 0.22 under setting [2].

Take SIPRHFALSGKYSREFFNRRGELR [SRPK2]: the protein stability index is 2.74 ± 0.46 under setting [1] and 2.8 ± 0.46 under setting [2]. For the sequence EYSKFCRMSYQDPAQLSCLPYLEH [NFE2L1], the protein stability index came out at 2.52 ± 0.56 under setting [1] and 1.89 ± 0.42 under setting [2].

As for NVAATGISQYEDDLPPPPADPVLD [APBB1IP], the protein stability index worked out at 5.36 ± 0.18 under setting [1] and 5.45 ± 0.19 under setting [2]. On to SPQIQRSAHRALYRRHVLGIVLQG [TMEM175], for which the protein stability index by setting is: under setting [1], 2.3 ± 0.19; under setting [2], 2.42 ± 0.36. Take THVTLLITVTQSHLVIQNLFEGMI [CDS1]: the protein stability index by setting is: under setting [1], 3.09 ± 0.21; under setting [2], 3.22 ± 0.16.

For EANADLEVKIRDWHLKQSPASPER [KRT13], the protein stability index amounted to 4.79 ± 0.15 under setting [1] and 4.97 ± 0.27 under setting [2]. Consider KQQKDPSEEAAVLQYASLVGQKCS [ATE1], for which the protein stability index reads like this: under setting [1], 4.84 ± 0.23; under setting [2], 4.77 ± 0.2. Take VGNNHESWGWDLGRNRLYHDGKNQ [SPSB1]: the protein stability index reads like this: under setting [1], 3.83 ± 0.33; under setting [2], 3.87 ± 0.42. In the case of FNIGLPDNIVNCNEFLCTLQKKLD [ZNF277], the protein stability index turned out to be 2.48 ± 0.32 under setting [1] and 2.51 ± 0.35 under setting [2]. Taken in the same sequence, the figures for GTDQVCVLEWGAEGVAGKSGLEKE [FCHSD1] were 5.01 ± 0.25 and 5.07 ± 0.15.

YSSSRDGYGGSRDSYSSSRSDLYS [RBMX] gave a protein stability index under setting [1] of 3.51 ± 0.14 and a protein stability index under setting [2] of 3.79 ± 0.21. As for GILGFNSAEWFITAVGAILAGGLC [ACSBG2], the protein stability index under setting [2] was found to be 3.62 ± 0.54. On to AAPPPPATPIVPVVPPTPPVVKKK [BRD3], for which the protein stability index was found to be 5.51 ± 0.21 under setting [1] and 5.25 ± 0.48 under setting [2]. In the case of TESYIARPDGDCASSLNGGNIKGI [ZC2HC1A], the protein stability index is, setting by setting: under setting [1], 4.09 ± 0.047; under setting [2], 4.24 ± 0.21. The sequence LQRDFLKQRPTKLKSLIRLVKHWY [OAS1] yielded a protein stability index under setting [1] of 3.3 ± 0.41 and a protein stability index under setting [2] of 3.15 ± 0.23.

On to PTPMPHNKGTRFSEAWEYFHLAPA [ZBED2], for which the protein stability index runs as follows: under setting [1], 2.65 ± 0.2; under setting [2], 2.71 ± 0.33. Turning to DLVNRTPWKKCCFSGDGEYIVAGS [RBBP5], the protein stability index worked out at 2.64 ± 0.25 under setting [1] and 2.37 ± 0.21 under setting [2].

As to FYHDHTKIIICSQNEEYLLTYINE [PLK2], the protein stability index by setting is: under setting [1], 2.57 ± 0.59; under setting [2], 2.58 ± 0.54. Turning to PSPASEQTVTVEEAAGGESALAPS [MAP2], the protein stability index stood at 5.45 ± 0.53 under setting [1] and 5.5 ± 0.15 under setting [2]. As to RRNSEFEIFVDCDINREQLNDIFH [TPH1], the protein stability index by setting is: under setting [1], 2.55 ± 0.096; under setting [2], 2.73 ± 0.27. As to QCRERREHPNLVRDHVETELLKEA [TEKT4], the protein stability index under setting [1] is 4.77 ± 0.19 and the protein stability index under setting [2] was found to be 4.97 ± 0.23. Taken in the same sequence, the figures for ARAFAEKNNLSFIETSALDSTNVE [RAB11B] were 4.51 ± 0.15 and 4.54 ± 0.13. Regarding FGAVNLSSPSNMLPVRPQTNALIG [CLINT1], the protein stability index stood at 3.23 ± 0.12 under setting [1] and 3.26 ± 0.41 under setting [2]. As to VPLGPLGETYCEEHGEKIYFFCEN [TRIM15], the protein stability index under setting [1] was 3.42 ± 0.15 and the protein stability index under setting [2] was 3.54 ± 0.36. LLLGAGESGKSTIVKQMKIIHEAG [GNAI1] yielded a protein stability index under setting [1] of 2.51 ± 0.47 and a protein stability index under setting [2] of 2.54 ± 0.65. On to KSPLHMTAVHGRFTRSQTLIQNGG [ANKRD44], for which the protein stability index under setting [1] is 3.28 ± 0.24 and the protein stability index under setting [2] worked out at 3.45 ± 0.18.

Consider PQLASLCLDTIDKSTMDAISAEGF [BTBD1], for which the protein stability index runs as follows: under setting [1], 3.98 ± 0.16; under setting [2], 3.99 ± 0.057.

As for HSTTPSGPGDEVARGIAGEKFDIV [ARFIP2], the protein stability index turned out to be 4.75 ± 0.34 under setting [1] and 4.64 ± 0.15 under setting [2].

Consider EKALKKNVKLQELINHKKAEDTEK [CEP70], for which the protein stability index worked out at 4.85 ± 0.34 under setting [1] and 5.07 ± 0.2 under setting [2]. With PCFKWYTSPWSECTKTCGVGVRMR [ADAMTSL2], the protein stability index was 2.07 ± 0.17 under setting [1] and 2.33 ± 0.32 under setting [2].
